# In a protein production outcome set (Wang et al. 2014):
# Assay: label from the status in PepcDB records
row,Sequence,protein production
1,MTFRDLLSVSFEGPRPDSSAGGSSAGGGGGSAGGAAPSEGPAVGGVPGGAGGGGGVVGAGSGEDNRSSAGEPGSAGAGGDVNGTAAVGGLVVSAQGVGVGVFLAAFILMAVAGNLLVILSVACNRHLQTVTNYFIVNLAVADLLLSATVLPFSATMEVLGFWAFGRAFCDVWAAVDVLCCTASILSLCTISVDRYVGVRHSLKYPAIMTERKAAAILALLWVVALVVSVGPLLGWKEPVPPDERFCGITEEAGYAVFSSVCSFYLPMAVIVVMYCRVYVVARSTTRSLEAGVKRERGKASEVVLRIHCRGAATGADGAHGMRSAKGHTFRSSLSVRLLKFSREKKAAKTLAIVVGVFVLCWFPFFFVLPLGSLFPQLKPSEGVFKVIFWLGYFNSCVNPLIYPCSSREFKRAFLRLLRCQCRRRRRRRPLWRVYGHHWRASTSGLRQDCAPSSGDAPPGAPLALTALPDPDPEPPGTPEMQAPVASRRKPPSAFREWRLLGPFRRPTTQLRAKVSSLSHKIRAGGAQRAEAACAQRSEVEAVSLGVPHEVAEGATCQAYELADYSNLRETDI,failed
2,MTFSAFFQTIDDYSFRPMIPSFIRLLRFTGLFIAIFAPALYIAMISFHYEVIPLKLLLTIGESRAKIPFPPILEALLMELVLEMLREAAVRLPGPVGQTIGVVGGIVIGQAAVQAGIVSNVMVIVVSITAVASFIIPNLEMSAGIRLLRFPMMIIASLFGVIGIMVGMAIIIIHILSMESLGVPYGSPFSPLFASDLKDILIRLPWKIMKKRPLSLNLKQENRQSDIEGTEEDK,failed
3,MTGADHAHTRRRPLTGPLVKSLVFVVVTALATTVLGLSVAGTSVDSGTGTSTYKALFTDVTGLVDGDSVRISGVTVGEVTDVRVVDRRTAQVTFTVRDDRTLPRSTTAAVKYLNMVGQRYVSLGRGSGDLAGTLPEGGTVPLDRTTPALDLTLLFNGFKPLFEGLSPKDVNDLAGSIVQVLQGEGATVDSLIRHVGSLGTTVAAKDKVIGEVVENLTTVLDTLNDREDGFDDLVVTLQKLVTGFNQDRKPLGEAVAAMGDLTTVTAGLLEDGRAPLKKDVQELGRLSAGLGEHTPQIEDFLEKSPAKMTALARLSSYGSWFNLYLCEARVSGVSTSDGSKPPTGIAITESRCRGLEHHHHHH,failed
4,MTGAVETESMKTVRIREKIKKFLGDRPRNTAEILEHINSTMRHGTTSQQLGNVLSKDKDIVKVGYIKRSGILSGGYDICEWATRNWVAEHCPEWTEGQPIILNEEGDFTLGPLPE,not failed
5,MTGEWKECKLREIASEIKSGGTPSTKHQEYYGGIIPWLNTKEIHFNRIRDTDIKITEGGLNNSSAKWVKENSIIVAMYGATAGKIAINKIPLTTNQACCNITPDSEKADYNFVYYNLCHRYDELVNLSCGAAQQNLNVGLITNLDIILPPITEQCAIASVLSSLDDKIDLLHRQNKTLEAMAETLFRQWFVEEADEDWEEGFLPDEFDFTMGQSPPGTSYNQEGVGKPMFQGNADFGFRFPEERVYTTEPTRLAYPHDTLISVRAPVGAQNMAKVECCIGRGVSAFRYKANNDFYTYTYFKLRSLMDEIKKFNDEGTVFGSISKTDFLQMGIAIPPEDIIEKFEIHAKPLNDKVIENCIQIKLLEVMRDTLLPKLMSGEVRVEG,failed
6,MTGFDADDAAALIQSYVDDHGLLSFLGVSVEDASDGEMRLRIPYHEKLTNHGPGEGDVHGGIAATLIDTAGGLAVRSALPKPVAANVATIDLNVSYLRPARGDLIADASVVRVGSTVGVAEISVVTPADTADAEPTEVAVGRGSFRVFRDDLEHHHHHH,failed
7,MTGHRPACPPIPADVYTRLERRIGRCHLNQRLGIEHDFEARIFGQGRTFFHIENWNRLHTLLRRLLKLSLLYRPGQRAARRIEIRRNEFTLPHLPEAFEGYTLLHISDLHLDMAGDLPDALIRAIGQAGHYDACVLTGDFRARTFGPYRGAIDGLAQVRTHIDKPVFAILGNHDTIRMTPEIEDLGIGVLLNEAREIRQDGASIFLAGVDDPHYYRADNIEKAADPIPQGAVSILLSHSPELYRHAAYADFDIMLCGHTHGGQICLPGGIALTLNARCPRAFGRGYWRYHRMQGYTSAGSGVSILDIRLNCPPEITLHRLSRHRLSKGGCECGGGKGLEHHHHHH,not failed
8,MTGKGQGGSWVPGVVSATDRGNFHASPTTATVLDIIGRILRAPLSATDTEIETALAQVADACSADVAQVCRAGTTGPLEPIHSWVRDGHIVLNIQDLCKFCPGSDQTGPVMLRDLKDLPEGPARDRLAGMELRSLVAVPMLRHGVLAGRVLLGWQTASSDLRPEDLAALQSLAEAMHAAAERRESERLTTEAAAALQEDRLLLESILRTSTSAILAFDADARIVFANDEAAALLGTDANRLPGCTLEGVGCRLLSREGEPLPPEALPVARAIAEGQTLRDLHHVLMAADGRQRILSINAAPVAAGAATAVRVVATIDDVTGQVSADSALRTALAEAHQLAFFDPLTGLYNRRGIVEVLRDCLQTCAREKAFLSLLYIDLDGMRQVNGTRGHWLGDRVLQALGARLDNLRQDGGDLGRISADEFVLTCGETHPDAAGAVAAAEAEAQRILESLREPFVVDGLTLEVTASIGLAAISAEDSVEGLLKGVDLAVMAAKAAGGDRACAYRADMEQDMVGRVALAQELREAIRRDEFRIYFEPMVSLGETGLEIVGQEALIRWEHPQRGLLAPIAFIPFAEETGFIRDIDRWVLRAAAQELARWAEDPARRHLGVSINISSAQFLSEEFGQMVREVLDETGVDPTRIELEVTEGTLLSNLGLARTTMMDLRSLGISIALDDFGTGFSSLSYLRDLPVDVLKIDRSFLGGLSDSKANRTILEGIIGLASGLGVALVAEGVETPAQFAWLRAKGCRTFQGYLFGRPVDEAQTQLAPEVSALGGHGGDRAVSGQIKG,failed
9,MTGNSFHVSGYGPDKAGWTRLFARDSMARRLDWPILLAAVALSLMGSLLVYSATRNRTELNQGDQYYFLTRHLLNTGIGLALMVATVWLGHRALRTAVPLLYGFSVFLILLVLTPLGSTINGAHSWIKLPGGFSLQPSEFVKITIILGMAMLLAARVDAGDRPHPDHRTVLQALGLATVPMLIVMLMPDLGSVMVMVIIVLGILLASGASNRWIFGLLGAGTAGALAVWQLGILDDYQIARFAAFANPALDPAGVGYNTNQARIAIGSGGLTGSGLFEGSQTTGRFVPEQQTDFVFTVAGEELGFLGAGLIIALLGVVLWRGCRIARSTPDLYGTVVAAGIVAWFAFQTFENVGMTLGIMPVTGLPLPFVSYGGSSMFAVWIAVGLLQSITVQRPMSA,failed
10,MTGQTQGKAVIARERISFWGGFDPQTGRIVDPYSSLRGRDISDCVLILLSSKGSSGTSGMLSLATRAGHAPAAMIQVEMDPVTVMGCLVNNIPLLQASGFDPFEQIQDGDLVRIDGENGTITLTPGQALEHHHHHH,failed
11,MTGRIVHFEIPFDDGDRARAFYRDAFGWAIAEIPDMDYSMVTTGPVGESGMPDEPGYINGGMMQRGEVTTPVVTVDVESIESALERIESLGGKTVTGRTPVGNMGFAAYFTDSEGNVVGLWETAR,not failed
12,MTGTYTELIEGSERLSGLTDVDEVIKDLSRLLRKLVKTRWIAVYFFDRERRDFAPARSTGLPASFLPVFREMPLAPDKIPLLKSMLRKRQHLMLTDPGSSDLLTPKLRKLLRNLCVLAVPMVVRTQVIGAVFMARTRDNPPFSDAETAIIRDLVSHAALVVSHMQLFDE,not failed
13,MTGVSDIQEAVAQIKAAGPSKPRLARDPVNQPMINNWVEAIGDRNPIYVDDAAARAAGHPGIVAPPAMIQVWTMMGLGGVRPKDDPLGPIIKLFDDAGYIGVVATNCEQTYHRYLLPGEQVSISAELGDVVGPKQTALGEGWFINQHIVWQVGDEDVAEMNWRILKFKPAGSPSSVPDDLDPDAMMRPSSSRDTAFFWDGVKAHELRIQRLADGSLRHPPVPAVWQDKSVPINYVVSSGRGTVFSFVVHHAPKVPGRTVPFVIALVELEEGVRMLGELRGADPARVAIGMPVRATYIDFPDWSLYAWEPDE,failed
14,MTHATSTETIHYVNEDGDQVFEDGGGKLDFTRTVTIDDVTNEVVEYGEWTPVTDDEFAAVTSPDKDGYTPDTSEVAAQKPDMTDGPDGTVKDVEVTVTYTANPAVATITYVDDDENGKLEHHHHHH,failed
15,MTHKVAFSFADGKTLFFPVKANEILLDAALRNGIKIPLDCREGVCGTCQGRCESGQYSQDYVDEEALSPQDLEQRKMLTCQTRVQSDAAFYFDFDSSLCHSADPVQLQGSVIDVRQVSESTAILHLDLGGHQAPLDFLPGQYARLSIPGTGTSRAYSFANRPAADNQLQFLIRLLPDGVMSNYIRERCLVGDTLQLEAPLGAFYLRQISRPLILVAGGTGLSALLAMLEQIVEQGCQQPVHLYYGVRHSRDLCELERIQAHGERLADFRFTPVISDANPDWPGKRGYISEHFDSSELRDQDTDMYVCGPPPMVDSIRIWLQEQQLNRVQLYYERFTESNI,failed
16,MTHVRIVMVNTTLPANIGSALRAMKTMGLSQLVLVAPKTYPHPDIDALAAGAQDLVEKIKIVDTLEQAIQDCHIVFGTSARSRTIPWPLLDARPAAELSMDAVITRQQEIAIVFGREDRGLTNEELALANYHLTIPVNTDYGVLNVAQAIQVICYEMRMATLAQVQNDQASSDSQKMQVTEKIEMDWDEPLVNHQQMEEFYPHLEKMLVDIEFLDPQNPRLLPLRLRRLFGRAQLDRMEYHLLRGIFSRVQALSHGKWKKTALDKEEQSDV,failed
17,MTIAPTTLLLFAATALAELVGCYLPYLWLRKGGSVWLLLPTALSLAVFVWLLSLHPEASGRVYAAYGGVYIASALLWLWWVDGVTPTRWDLLGAACCLLGMAVIMFSPRSA,failed
18,MTIAVDFDGTIVEHRYPRIGEEIPFAVETLKLLQQEKHRLILWSVREGELLDEAIEWCRARGLEFYAANKDYPEEERDHQGFSRKLKADLFIDDRNVGGIPDWGIIYEMIKEKKTFADIYSQQREENTSQKKKRKWLPF,not failed
19,MTIGRAKVYATLSKIFYHLFYDEAIPKDCREIIEKFGEIDFNLRSVLVRELRGSVLIKDMPQSLAEVYESVMKDFYERYGFQASELHADHIAVELAFMSKLVEREISLAQQMKEEELYKIRAAQHRFIKAHLQPLVKNLPSAPLLNFVRDFVREDAKYLYSSLVGEKNEGADNN,not failed
20,MTIKALFWDIGGVLLTNGWDREQRADVAQRFGLDTDDFTERHRLAAPELELGRMTLAEYLEQVVFYQPRDFTPEDFRAVMEEQSQPRPEVLALARDLGQRYRMYSLNNEGRDLNEYRIRTFGLGEFLLAFFTSSALGVMKPNPAMYRLGLTLAQVRPEEAVMVDDRLQNVQAARAVGMHAVQCVDAAQLREELAALGVR,not failed
21,MTIPLIIGGVLLAILILLILVFITKYRTVGPDEALIVTGNWLGGGKNVVTTDDGKKIKIIRGGGTFVVPIMQRAEPLSLLNYKLEVGTRDTYTKQGVPVTVNGVSIIKVGSTIEEVSTAAEQYLGKETEELKVEAKEVLEGHLRAILSSMTVEDAYSNREQFAQKVHEVASTDLKKMGLRIVSFTIKEIMDKNGYLDALGQPQIATVKRDATIANAEREKEARIEKARAEKEAKEAEYQRDAQIAEAEKHKELKVQSYKREQEQARADADLSYELQQAKAQQGVTEEQMRVKIIEREKQIELEEKEIARREKQYDAEVKKKADADRYAVEQSAEAEKVKQIKKADADQYKIEAEARARAEEVRVEGLAKAEIEKAQGQAKAEVQKAQGTAEADVIRLKGLAEAEAKQKIAEAFELYGQAAIMDMVLKMLPSYAKEVASPLSNIDKITVVDTGGGGKNSGAGKVAGYATDLMATMQETLKASSGIDLKELLEGFAGKGAVQQLSSDKPVVSVVEDKKKEVEKDKE,failed
22,MTIQDYMLETPVRMREIISNADSLFNEVKRTNLKKIIITGSGTSYHSGVQVQPYLQNLLDIDVVKMYPFMITEDTFKFDNENTLVVGVSQGGSSYSTYNAMKLAEDKGCKIASMAGCKNALIDEISDYILTVNCGEEKSGAKTKGYYCTKLNLMLLGLQIAREKGIISSEKYNEEINKILDAINRFEAVYKLSKQWIERNKEKLVNSKEIRIIGHSDIYGDTLEAALKLLETMRIPVTGYEFEEFIHGIYNAINSDSTIFILDTGKEPRVTKMIDVLSGWTENVFAIGRDVTENDKNLKIDITDNPYYQTFNFIVPIQLICGEIPTLRGVDPSVPKDTRFHMKLGSKKLNK,not failed
